B1: ESRRA (parent)
chain: SLPLQDELAFAEDLVLDEEGARAA
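Also: lentivirally expressed fusions sorted by FACS into six bins by GFP to DsRed ratio, PSI derived from sequencing read proportions per bin multiplied by bin number.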

The series covers variants of B1. The experiment in a line: protein stability index of a GFP-peptide fusion (GPS, HEK-293T) (PSI 1-6); higher = more stable. As to conditions: c terminus: a fixed tail appended.
For the variant SLPLNDELAFAEDLVLDEEGARAA [Q5N], the protein stability index came to 3.77.

SLPLRDELAFAEDLVLDEEGARAA [Q5R]: the protein stability index was found to be 3.37.

Consider SLPLIDELAFAEDLVLDEEGARAA [Q5I], for which the protein stability index worked out at 3.37.

As for SLPLFDELAFAEDLVLDEEGARAA [Q5F], the protein stability index was found to be 3.85.

SLPLEDELAFAEDLVLDEEGARAA [Q5E]: the protein stability index stood at 5.48.

SIPLQDELAFAEDLVLDEEGARAA [L2I]: the protein stability index came to 2.78.

As to SDPLQDELAFAEDLVLDEEGARAA [L2D], the protein stability index was determined as 5.55.

As for SLPLQDEEAFAEDLVLDEEGARAA [L8E], the protein stability index stood at 5.55.

In the case of SLPLQDEIAFAEDLVLDEEGARAA [L8I], the protein stability index stood at 5.34.

For the variant SLPLQDELCFAEDLVLDEEGARAA [A9C], the protein stability index is 4.11.

In the case of SLPLQDELWFAEDLVLDEEGARAA [A9W], the protein stability index is 3.68.

Turning to SLPLQDELEFAEDLVLDEEGARAA [A9E], the protein stability index amounted to 4.7.

Regarding SLPLQDELYFAEDLVLDEEGARAA [A9Y], the protein stability index is 4.19.

For the variant SLPLQDELAFAEDLVLDEEPARAA [G20P], the protein stability index was determined as 3.7.

With SLPLQDELAFAEDLVLDEEYARAA [G20Y], the protein stability index was determined as 2.44.

On to SLPLQDELAFAEDLVLDEEIARAA [G20I], for which the protein stability index is 3.08.

As to SLPLQDELAFAEDLVLDEEGMRAA [A21M], the protein stability index came out at 3.61.

With SLPLQDELAFAEDLVLDEEGRRAA [A21R], the protein stability index is 3.41.

Consider SLPLQDELAFAEDLVLDEEGTRAA [A21T], for which the protein stability index stood at 3.75.

On to SLPLQDELAFAEDLVLDEEGGRAA [A21G], for which the protein stability index was found to be 2.77.

As for SLPLQDELAFAEDLVLDEEGFRAA [A21F], the protein stability index is 3.5.

Take SLPLQDELAFAEDLVLDEEGKRAA [A21K]: the protein stability index amounted to 2.66.

Take SLPLQDELAFAEDLVLDEEGNRAA [A21N]: the protein stability index was 2.91.

In the case of SLPLQDELAFDEDLVLDEEGARAA [A11D], the protein stability index amounted to 5.57.

For SLPLQDELAFTEDLVLDEEGARAA [A11T], the protein stability index was 4.23.

Regarding SLPLQDELAFEEDLVLDEEGARAA [A11E], the protein stability index is 5.54.

SLPLQDELAFIEDLVLDEEGARAA [A11I]: the protein stability index worked out at 4.73.

For SLPLQDELAFQEDLVLDEEGARAA [A11Q], the protein stability index is 5.56.

On to SLVLQDELAFAEDLVLDEEGARAA [P3V], for which the protein stability index came to 4.91.

Consider SLMLQDELAFAEDLVLDEEGARAA [P3M], for which the protein stability index was 4.18.

For SLKLQDELAFAEDLVLDEEGARAA [P3K], the protein stability index is 5.08.

Take RLPLQDELAFAEDLVLDEEGARAA [S1R]: the protein stability index came to 3.28.

Turning to LLPLQDELAFAEDLVLDEEGARAA [S1L], the protein stability index is 2.26.

As for GLPLQDELAFAEDLVLDEEGARAA [S1G], the protein stability index worked out at 2.81.

As to FLPLQDELAFAEDLVLDEEGARAA [S1F], the protein stability index stood at 2.48.

For the variant SLPLQDELAFAEDLVLDEEGAPAA [R22P], the protein stability index was 3.01.

As for SLPLQDELAFAEDLVLDEEGALAA [R22L], the protein stability index amounted to 3.73.

For SLPLQDELAFAEDLVLDYEGARAA [E18Y], the protein stability index was 2.99.

Regarding SLPLQDELAFAEDLVLDWEGARAA [E18W], the protein stability index stood at 2.49.

SLPLQDELAFAEDLVLDQEGARAA [E18Q]: the protein stability index was 2.8.

As to SLPLQDELAFAEDLVLDGEGARAA [E18G], the protein stability index was 2.93.

For SLPLQDELAFAEDLVLDEEGARAI [A24I], the protein stability index was determined as 2.92.

In the case of SLPLQDELAFAEDLVLDEEGARAH [A24H], the protein stability index is 3.66.

SLPLQDELAFAEDLVLDEEGARAS [A24S]: the protein stability index came to 2.82.

Turning to SLPLQDELAFAEDLVLDEEGARAN [A24N], the protein stability index came out at 2.28.

For the variant SLPRQDELAFAEDLVLDEEGARAA [L4R], the protein stability index was found to be 5.1.

Consider SLPAQDELAFAEDLVLDEEGARAA [L4A], for which the protein stability index came out at 5.45.

Take SLPVQDELAFAEDLVLDEEGARAA [L4V]: the protein stability index was determined as 5.02.

SLPHQDELAFAEDLVLDEEGARAA [L4H]: the protein stability index stood at 5.41.

Consider SLPLQDELAFAWDLVLDEEGARAA [E12W], for which the protein stability index came to 5.05.

Regarding SLPLQDELAFAFDLVLDEEGARAA [E12F], the protein stability index is 4.52.

In the case of SLPLQDELAFALDLVLDEEGARAA [E12L], the protein stability index amounted to 4.42.

As to SLPLQDELAFAYDLVLDEEGARAA [E12Y], the protein stability index amounted to 4.2.

On to SLPLQDELAFAQDLVLDEEGARAA [E12Q], for which the protein stability index was 4.71.

Turning to SLPLQEELAFAEDLVLDEEGARAA [D6E], the protein stability index is 2.67.

In the case of SLPLQDELAFAEDLVLFEEGARAA [D17F], the protein stability index is 2.93.

As for SLPLQDELAFAEDLVLYEEGARAA [D17Y], the protein stability index stood at 2.5.

Consider SLPLQDELAFAEDLVLHEEGARAA [D17H], for which the protein stability index was determined as 3.47.

As for SLPLQDELAFAEMLVLDEEGARAA [D13M], the protein stability index came out at 3.83.

Consider SLPLQDELAFAEPLVLDEEGARAA [D13P], for which the protein stability index came out at 5.46.

As to SLPLQDELAFAETLVLDEEGARAA [D13T], the protein stability index amounted to 3.71.

For the variant SLPLQDELAFAEVLVLDEEGARAA [D13V], the protein stability index amounted to 1.85.

Regarding SLPLQDELAAAEDLVLDEEGARAA [F10A], the protein stability index stood at 4.18.

In the case of SLPLQDELAHAEDLVLDEEGARAA [F10H], the protein stability index was found to be 3.44.

With SLPLQDELADAEDLVLDEEGARAA [F10D], the protein stability index was found to be 4.18.

With SLPLQDELAQAEDLVLDEEGARAA [F10Q], the protein stability index is 3.98.

For SLPLQDELAYAEDLVLDEEGARAA [F10Y], the protein stability index is 3.54.

As for SLPLQDELANAEDLVLDEEGARAA [F10N], the protein stability index worked out at 4.03.

As for SLPLQDELALAEDLVLDEEGARAA [F10L], the protein stability index stood at 2.5.

Turning to SLPLQDELAGAEDLVLDEEGARAA [F10G], the protein stability index worked out at 4.26.

SLPLQDELAFAEDLQLDEEGARAA [V15Q]: the protein stability index turned out to be 5.49.

SLPLQDELAFAEDLNLDEEGARAA [V15N]: the protein stability index amounted to 5.68.

Consider SLPLQDELAFAEDLRLDEEGARAA [V15R], for which the protein stability index amounted to 5.42.

For SLPLQDELAFAEDGVLDEEGARAA [L14G], the protein stability index is 5.57.

On to SLPLQDELAFAEDWVLDEEGARAA [L14W], for which the protein stability index was 4.92.

In the case of SLPLQDELAFAEDVVLDEEGARAA [L14V], the protein stability index was 4.41.

As for SLPLQDELAFAEDNVLDEEGARAA [L14N], the protein stability index was 5.38.

With SLPLQDELAFAEDFVLDEEGARAA [L14F], the protein stability index turned out to be 5.22.

For SLPLQDELAFAEDEVLDEEGARAA [L14E], the protein stability index is 4.62.

With SLPLQDELAFAEDAVLDEEGARAA [L14A], the protein stability index came to 4.45.

Consider SLPLQDELAFAEDLVLDEFGARAA [E19F], for which the protein stability index stood at 2.25.

Regarding SLPLQDELAFAEDLVLDEDGARAA [E19D], the protein stability index amounted to 2.79.

For SLPLQDLLAFAEDLVLDEEGARAA [E7L], the protein stability index came to 3.66.

Turning to SLPLQDQLAFAEDLVLDEEGARAA [E7Q], the protein stability index was determined as 3.56.

For SLPLQDGLAFAEDLVLDEEGARAA [E7G], the protein stability index was 5.2.

For the variant SLPLQDTLAFAEDLVLDEEGARAA [E7T], the protein stability index is 4.4.

Consider SLPLQDMLAFAEDLVLDEEGARAA [E7M], for which the protein stability index amounted to 3.26.

For SLPLQDELAFAEDLVWDEEGARAA [L16W], the protein stability index was 3.23.

For the variant SLPLQDELAFAEDLVDDEEGARAA [L16D], the protein stability index worked out at 5.66.

On to SLPLQDELAFAEDLVYDEEGARAA [L16Y], for which the protein stability index came to 2.44.

SLPLQDELAFAEDLVADEEGARAA [L16A]: the protein stability index worked out at 3.83.

For the variant SLPLQDELAFAEDLVLDEEGARMA [A23M], the protein stability index stood at 2.43.

As to SLPLQDELAFAEDLVLDEEGARWA [A23W], the protein stability index is 2.44.

With SLPLQDELAFAEDLVLDEEGAREA [A23E], the protein stability index came to 3.66.

The values are drawn from the supplement of paper PMC10567573.
